Test results taken from patent US20020053092.

Tested on: MeCP2 (Homo sapiens)
Test: cell_activity
Conditions: 5mC at CpG (SssI); S2 cells with Sp1; methylated promoter alone repressed 3-fold; binding inferred from repression

cyclin A1 promoter, SssI methylated
activity (fold repression): 12
